In assay [1] the target is CCDC112 on HCT116 tumor cells (including HCT116 cells stably overexpressing CCDC112) (human) (UniProt Q8NEF3). In words: flow cytometry on HCT116 cells overexpressing CCDC112; ambiguous fit of a flat control curve (see non_binding); table gives no unit, unit from the x axis. (In general: Flow cytometry measures light scatter and fluorescence of single cells or particles in a stream.)

The target in assay [2] is T1, CCDC112 recombinant protein (coiled-coil domain-containing protein 112) (human) (UniProt Q8NEF3).
T1 sequence: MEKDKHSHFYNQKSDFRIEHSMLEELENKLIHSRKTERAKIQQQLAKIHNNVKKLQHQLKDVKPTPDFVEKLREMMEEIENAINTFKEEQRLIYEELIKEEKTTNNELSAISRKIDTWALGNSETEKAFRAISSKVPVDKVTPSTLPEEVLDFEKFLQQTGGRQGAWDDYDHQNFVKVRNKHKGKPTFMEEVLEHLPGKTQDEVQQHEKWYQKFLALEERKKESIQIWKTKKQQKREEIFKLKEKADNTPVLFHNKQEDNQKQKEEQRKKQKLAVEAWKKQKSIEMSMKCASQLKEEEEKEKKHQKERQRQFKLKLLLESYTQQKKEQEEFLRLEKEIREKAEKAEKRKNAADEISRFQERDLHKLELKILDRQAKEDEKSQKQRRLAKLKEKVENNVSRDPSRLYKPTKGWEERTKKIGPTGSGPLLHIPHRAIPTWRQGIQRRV
In words: ELISA, coated CCDC112, LILRB2-hFc, 0 ug/mL CCDC112 antibody; number over the bar. On the technique in general: An ELISA detects its analyte on a solid surface through an enzyme-linked reagent.

LILRB2-hFc (LILRB2 extracellular region protein fragment labeled with hFc), sequence (Q8N423 22-460): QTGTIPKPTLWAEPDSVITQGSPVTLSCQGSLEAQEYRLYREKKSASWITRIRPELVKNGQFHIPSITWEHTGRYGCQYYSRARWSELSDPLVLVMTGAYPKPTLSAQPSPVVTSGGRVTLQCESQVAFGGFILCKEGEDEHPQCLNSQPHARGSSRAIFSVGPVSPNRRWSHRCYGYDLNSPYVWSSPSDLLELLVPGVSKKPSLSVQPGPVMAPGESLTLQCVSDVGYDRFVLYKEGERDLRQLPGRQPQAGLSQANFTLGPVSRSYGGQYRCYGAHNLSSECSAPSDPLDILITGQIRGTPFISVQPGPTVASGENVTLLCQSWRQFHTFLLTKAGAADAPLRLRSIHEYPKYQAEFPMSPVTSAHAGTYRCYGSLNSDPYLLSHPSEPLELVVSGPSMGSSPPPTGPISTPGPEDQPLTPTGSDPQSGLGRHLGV

Regarding mIgG1 (antibody), the EC50 (usually the concentration at which the effect is half-maximal) in assay [1] is 44.9 nM.

For “LILRB2-hFc (LILRB2 extracellular region protein fragment labeled with hFc) (from UniProt Q8N423 22-460) (Fc fusion)”, the OD450 in assay [2] amounted to 1.58 OD450.

The values above are taken from US20240101663A1.
